Experimental data taken from patent publication US20210380975A1.

Experiments:
[1] = target: AKAP 150 (rat A-kinase anchor protein) (rat) (UniProt P24587); assay: cell-based or functional assay
[2] = target: IL-6 (human, in degenerative IVD conditioned media) (human) (UniProt P05231); assay: cell-based or functional assay
Sequence of UniProt P05231 (P05231 30-212 limits assumed): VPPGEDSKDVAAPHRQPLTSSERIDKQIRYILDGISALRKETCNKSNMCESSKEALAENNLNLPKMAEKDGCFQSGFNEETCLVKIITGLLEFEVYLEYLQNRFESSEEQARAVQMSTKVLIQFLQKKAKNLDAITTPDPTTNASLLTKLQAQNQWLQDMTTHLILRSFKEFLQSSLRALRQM

Sequence of UniProt P24587 (P24587 whole entry): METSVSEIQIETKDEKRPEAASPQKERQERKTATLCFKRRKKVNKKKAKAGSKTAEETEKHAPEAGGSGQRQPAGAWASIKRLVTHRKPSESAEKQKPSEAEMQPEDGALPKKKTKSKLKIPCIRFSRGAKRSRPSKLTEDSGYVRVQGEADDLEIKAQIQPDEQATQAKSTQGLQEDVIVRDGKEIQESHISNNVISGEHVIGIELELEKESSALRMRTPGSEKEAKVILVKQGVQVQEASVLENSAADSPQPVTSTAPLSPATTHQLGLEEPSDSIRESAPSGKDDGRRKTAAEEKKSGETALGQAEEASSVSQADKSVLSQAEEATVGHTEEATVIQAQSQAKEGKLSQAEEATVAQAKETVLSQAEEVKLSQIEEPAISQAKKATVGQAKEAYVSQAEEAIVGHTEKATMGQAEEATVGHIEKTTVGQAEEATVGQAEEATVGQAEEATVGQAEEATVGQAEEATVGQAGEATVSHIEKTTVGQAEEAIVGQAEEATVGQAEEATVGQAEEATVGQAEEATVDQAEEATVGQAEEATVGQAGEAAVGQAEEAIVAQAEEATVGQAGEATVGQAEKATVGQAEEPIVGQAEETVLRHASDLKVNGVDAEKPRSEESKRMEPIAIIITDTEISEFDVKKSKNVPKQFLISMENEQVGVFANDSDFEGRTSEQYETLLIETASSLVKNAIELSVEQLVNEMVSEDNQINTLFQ

Row | percentage of rat DRG neurons firing at 39° C. in degenerative IVD conditioned media [1] | maximum firing response of DRG neurons (Boltzmann fit) [2] | Substance
1 | 61.9% | – | Control peptide St-Ht31P (Promega)
2 | – | 66% | Mouse isotype control antibody (Life Technologies)
3 | 15.5% | – | AKAP inhibitor peptide St-Ht31 (Promega)
